Experiment: soluble fraction after stress (log2 fold change); higher = more stays soluble; pooled small domains, quantitative proteomics
Conditions: stress: 50 degC
Outline: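 Pooled custom libraries of small protein domains were each held under stress at 50°C. The read-out, high-throughput quantitative proteomics, tracked how much of each protein stayed soluble. This is reported as a base-two log fold change used to indicate aggregation propensity. Higher values mean more protein remains in solution.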

Sequence	soluble fraction (log2)
HMVVTMEKIVVNDGGIRIDTYLADKLNISRSKVAKMLENNILVNNVKVKPSYKVTNNDIIEVEEYV	-0.936
HMTQRRLQSELDSIPGVGAGTRTKLLRTLGSVDAVLRASEAELLAAGANRRQVASIQAHAAAVER	-0.0642
HMEIDMQEGIKTIILMMKEHNITPSEAMKIYKSANGDIHYISKIYNHFKNKGADNFVALMIKMVKPGEFIE	-0.00191
HMNNFTPEHLEKDIEGSLFFRRLKETAREEPGSLTVAQKDFIQMWHDQADGVYTLRQVFVQTAFDHVRSL	0.1
HMDQSIDADIINLNFSKNIIKIEENVYYKNNNAKVNADKIEINIETKKLKISMNEQEDEVEIFAK	0.283
HMSGLVPAIGTKGEEGYIRESDIPGSNVKNPEEALAYMEWLKTQPSELLIPLYDEQGNVIGQFAVS	0.07
HMDFTHFTLKQDGKFAGSSNLLHQAVIAAARLAAETGKPVTVMAHVRGGGTRKAVFNPDGTNDKIWN	-0.61
HMRIFDDNMIFPTEAEISAALKRLVMDLPKVGFLQGHGERAVDNVGERAYSMFTHANNFRYALINQGFVT	-0.176
HMSADISIGYNIPKGSVTVSAGGRTLQEGIDYDINYDLGTIKITNQAILNAGLPVQVNFENNAS	0.149
HMEVDDEAIYQGHEPSIRLHRLLKDVGYNSALLPSVVTQIFKDFPGIELAKALPIAMQLLNED	-0.403
HMTKTKFLSKDMILSAMSRTKSNRAAARYLSVSFVHYKKYAREYKDETSGVSLWEKHKNQSGTGIPK	-1.92
HMATTIEAPMPGKILDVKVNPGQAVSYGQVVLTMEAMKMETEIVAPADGTVASVLVKSGDMVETGAALVSL	0.0867
HMAAEELTVDKILTAQSFGVTAEAILAKVNDPANTVATLTQADVDRLRAAGVPEGVVTALQARAPQ	0.0975
HMNINTEMEKVSYSLGVNIASSLKQQGWELDAKSLSDAFVDVFNGNKLLIDEKEASSILQNYQQKIANK	-0.144
HMLSLTSRQQEIFDLIKGHIKKTGMPPTRSEIALHFGFRSANSAEEHLRALARKGFIELIPGTSRGIKLIE	-0.892
HMDPEQLKIAINTKMPFGKYSGRPLLLLPEPYLVWFKQQGFPDSKLGSQLAMMYEVKLNGLEQMLMPLL	-0.673
HMKILVTDDNIRIDKYLTTQTEYSRSTIQKMIESNNILVNNKPTKSNYILRNNDEITIDENFNEE	-0.11
HMGEVQALIPGLVSKLFVVEGESVKIGQKLIILEAMKMENEIASPINGTIKKIYIKSGDKIDKGSIIMEIT	-0.336
HMKNDIQLKHDVEEELQWDPAVDASRFAVQAKDGVVTLSGGVDTFADKHAAEEAIRRVAGVTALVIHVDV	-0.107
HMDLQHQLTPRLKRLRLSGILETLEVRNQQAIAEKWSYVEFLTRLAEDEVERRDHKQLTLRLR	-0.499
HMSQITEADYIPNTDKTWGELMEETGESLPNLVERYNNEMTKSNGKEQPQSIIQRIIEDYQMVS	0.0384
HMKQVNVVSVIGQSEANAKTTLTGLGLKVNVAYEEDTSKADGIVLKQSLEGGKTVNEGTTITITVNKIA	-0.0302
HMKYSELLLEIILQSKEHPTAEQIFIEAKKRNPKIVQATVYNNLKNLLAQGRVIRISNPGQPDRYDNT	-0.401
HMSTMTDAQRHLFANKLSQLPEMGKYSHGTESYQQFAVRIAEMLQTPKKFKELYPYLQKVGFKA	0.00319
HMGMYAEERHQAIASLARKHGRVSVAELAERFNVTSETIRRDLDSLARRGLLTRVHGGAVPVE	0.0963

Sequence	soluble fraction (log2)
HMDLDIQNYNLDEILELFKVSYDFDETELKKAHKMYLMTHPDKSNLNPNIFLFFVQAYDILRKLYEFR	-0.468
HMKEVELENMIKAKGFKDAAVLVDERSVTVIVESERLAAGDSASIKELVSRGTGVDPQNVVII	-0.107
HMGQKASEVEKIFVELQQQIIRGDLPPGYRLVESQIAAQFGVSRTPARLAIERLATAGLVAHETNRGATVH	-0.42
HMKSARDDILSALDKAGEPLSMKDIAELSGRKLSTLRAQMTRLVAEGAVQATAAAHSPDRKYRK	-0.0859
HMQLNNTDELEKIILKILENNPKQVDQFLAGKQKLLGFFVGQAMRATSGKANPKTVNDLLEKFLSK	-0.0714
HMLRISLAAARVNAEMTQEDVAREMHVSKNTVVNWEKGKSEPTISQSRELSKLYNMPLEYIFYL	-3.05
HMSDTSELESIIAQIIEDNPKSIEDIGAGNQKAYGFLTGQVMKATKGQANPQVANKIIRELVARKLE	0.575
HMTSTEQEILIEHMVDRLPALRKKYGISQTELGEKIGLSRQTISAIERKTTPLTWTTMLAILMFFT	-1.7
HMEYQSLVLDFLEQGDFNAEKLKDYQRAFAKQNGMQTLPSKSQILQAYFQLVEEKKINKNSDFELLLRKR	0.0447
HMISEWDAAYSYAKQYYEENGHLFVPKKYVTSEGAALGKWIWEQRDSYLGLSSYKISDKKIEMLEDIGMFW	-4.02
HMGVAAEDPDEAEKGAHSLKSSAANVGAEVVRGLAGEIESAASSGDVEAVRTILPGLEDAYSQAITDLET	0.0162
HMAPNKLQQQEVWTKALPLLQQMIMTIRQIDAAGGDSSPERELLEETAARFDETLDVERFLP	-0.308
HMEETGFYIKLQDQEVVIFHNDQVTPYEYTGIREEVLPESELEKLREGFFVEDEKELYSVLENLS	-0.142
HMKEIKRLVELSPGRYFIEGATNIRVFGINGSLLLDTKGETVDLSDLAKGVYLLKTDGVTYKVL	-0.543
HMPTPLTPREHEIANLIAQGLSNREIADELVISPATAARHVANILAKLGFSSRTQVASWATRHD	-0.179
HMALDLNEDEKLLVELIEKAGGTAGLGELKEASGLSGKKWDKTTKNLSKEGLIKVEKNESGLWVHLT	0.153
HMIYAEDFVGRQGTANTILRPSGRIEIEGEVYDAYTRGEYVEAGERVVVISQEGSTLKVRVV	-0.683
HMDRVSEITLTRLRDYAADGQVRTATLTHRTNVVTGTLRDGRRFSAGVPPMYGDELTTFLLDNGVRVDSDN	-0.167
HMPSLSREREAAILEMIERRPSTAEDVASGLGLAVNEVIKLLDGTALRGSVETFQSGEEIYYTRKR	0.144
HMSIEHVPGYTTLSKREQEIVHALLTRKTPEELADDLSISINTLNKHISHIYHKLGIRGRMQLFDYA	-0.284
HMSEVTYQETLRLLRRAIDVLPQQSRQIILLGLSGKNNNEVAEMLGISVNTVKTLKKGAYKSLRNSL	-1.66
HMVFADRLRALRKKSGLTQDEFSKQTGIGRSAVGMYESGKREPNYTTLSKVARFYHVSTDYLLGRTDTP	-1.04
HMRSSAATMFGRIALKNKLVDEATLKKVMSELPAGADLGAVLVKQGLISEQHAEAIQKKITAHMKSAP	0.273
HMKQQNFADLAGRFVFNADNEVVFNFGKHKNVPVATVLKNEPGYYGWMMGGDFPLFTKKILKQIKEA	-0.847
HMELNFEGFYRFVRDELNVDLNAYKEKQLKRRIATVMKSSGALTLEDYSRLIANDEVIRNKFLDYITI	-1.08

Sequence	soluble fraction (log2)
HMGELDFYEEMRDDYLTGKIWNVGEIVEAKGMIGEIVRKGTNYISFVTDDNKVHKAWLHEIKL	-0.634
HMQLEPLITSVIPVNFAKAGEVATTIKGKEVGLVSDRGSITAESRTNVLIVKDIKKNVDDISAMVKRLD	0.123
HMNMAEQGISLDSEAGKARFVSQALPLLKQLPDGVFKQRMLNQLADRVEVTADFIAQQLAQLKAA	-0.079
HMHADIAATVVATMRQLGVLGLPRNYEIFYEALSGTNRELSLAVVSLSNRPTQDDLDRIGRRFFA	-0.785
HMGEYGVLWYLLTKKEAVSAGELKEKLHVVPGRMTDILTALEKKGLIIRQKNKTDKRVVDVVLTKEGEKEA	-0.471
HMTGGLTQEQISQLRMLTPQQIEQLRQLQPQQVEMLRQLRPEQVMLLTQLEPQQIMAFMRLEPSVIMQL	-0.215
HMGEWHQMLRSWGETELKNGRQNILDEAVPAFERAMIETALAHTSGRKKDAALLLGWGRNTLTRKLQEHSI	-0.0702
HMQVSDVTELRTILEKVITENESVATEFKEGKDAAMNFLVGQGMKATRGAADPALLKEIITGIL	0.0889
HMKDMWNRIRRARLSAGLSQAALAKETGVRRSAVTQWEKEGGTSPSVANLARIAVVTQVHFEWLATGRGPG	-2.67
HMNKKEIISVLEKIIPPSQIKNINIFGSELVIDLNIDNPSLHAKKKLEKSIMSSFDENLKIIVNFSVE	-0.00924
HMNEPSSYGYAISVALDRNGLGTVKGGTLYPLLARLEQAAHVETRWEAGDGGPGRKYYTITDSGRS	-0.201
HMEFYYSDLVGMIVYDTGGNELGKVQAVLNHGAGDLLEIHGVNLKTSILIPFTKEAVPTVDIAARRIVTDP	0.0733
HMENSPLTHREAEVMRLMSEGKSNRAISEHLVISEKTVKNHVSSILQKMSVDDRTQAVLQAIKNGWVD	0.23
HMHSIFPVIRSTSFPTKSNDGELFITSDHTAETRIYYALDLGNTYRLIDQKVMNEINLTESLVKETARF	-1.9
HMGVSEIGSPAWMESKLVTLASYEGSLDGLRTLWGGVAQHRARIPVESWDRLFAAKEEGKARLVKLGRT	-1.19
HMIEKVNDYVVRFANVNGTGSASANNLFALAIYRMGVPVTPKNIFPSNIQGLPTWFEVRVSGSGYLARRG	0.01
HMITGSIQPKNGKYYAVLNLYDHTGKRRPKWVSTGYTVKGNKKKAQEVLNELTRRYSAQLPPSK	-0.512
HMVNVTEAIDLENGTGKLSGTFNHEPKSAEEIIFLLKIDTNKWKLSQYWNKQMGDHWRVSALISQI	-1.91
HMDAIIVPSVLKMKPFEAEEKLSALGLRMKINDTVYIDNMKPGVIVEQSPTAEEDVKTDRVIYVIVNA	-0.404
HMQQRTVEHVDTAVEALALSIGERAGVDLPYMAHLTGKTQEDLIEDLTGVIFPVPGTEPLRYVTADDYLS	0.028
HMRTVAERYGLTAGQWRVLELLTQGKTNRQIAEMLDVTEGTVKIHVSAIFKAMKVTNRTQALLLAKKH	-0.558
HMADKNIIGVLSAADNLGKVRITTANGEKYIITVPDGLSDIVKTYWEEEVSVKYVIEKRRKILVDIDG	-1.67
HMRRSVYQANVLDAIKHLVDQNELATTKAIAEYIGDDYQGNVSRAIRELLADRKIKKLPKVGVLQPYEA	-0.285
HMDYYSILGVDRNATGEDIKKAFKKKAMKYHPDRNPDNKESERKFKEAKEAYDTLSNPQKKSMYDQFGT	0.0734
HMDIVEIYVGEEDGERIDSYLAQELNNVSRSYVQGLIKNQLITVNGNHVKPKHIVKEGEHIIVNIPPPKV	0.24
